The text below walks through data of patent US20110301327A1 (MANNKIND, published 2011).

Read-outs that look alike come from different tables or passages of the source. Where no end group is shown, it is not given here. [ ]: non-standard residue; d: D form. Orn = NCCC[C@H](N)C(=O)O; Nva = CCC[C@H](N)C(=O)O

For assay [1], the target named is T1, HLA-A*0201 (human).
T1 construct: Empty class I on TAP-deficient T2 cells, stabilised by the added peptide; also called HLA-A2; MHC class I (A2 allele) on T2 cells
Kind of assay: T2 cell binding, flow cytometry. A general note: Flow cytometry measures light scatter and fluorescence of single cells or particles in a stream.

The target in assay [2] is T2, HLA-A*0201 class I monomer (ITOPIA Epitope Discovery System plates).
T2 construct: Bought kit; for the PSMA series only HLA-A2 is implied; also called MHC monomer; HLA-A2
Kind of assay: iTopia binding assay.

The target in assay [3] is T2, HLA-A*0201 class I monomer (ITOPIA …). The assay can be described thus: iTopia affinity assay (ED50).
Assay [4] deals with T1, HLA-A*0201. The assay can be described thus: T2 cell binding, flow cytometry. This is another data set of the same source.
The target of assay [5] is T2, HLA-A*0201 class I monomer (ITOPIA …). The assay can be described thus: iTopia affinity assay.
The target in assay [6] is T1, HLA-A*0201. The assay can be described thus: T2 cell binding, flow cytometry; half-maximal binding.

In the case of KLSEKIFYVL [SSX-2 41-50(A42L, Y50L)], the binding result in the assay with HLA-A*0201 [1] is recorded as “binds”.
Regarding KLSEKIFYVV [SSX-2 41-50(A42L, Y50V)], in the assay with HLA-A*0201 [1], the binding result was “binds”.
Turning to [Orn]LLQHLIGL [PRAME425-433 analog, Orn at P1], the binding result in assay [2] is on record as “binds”.
For XLLQHLIGL (Hse (homoserine) at P1) [PRAME425-433 analog, Hse at P1], in assay [2], the binding result is “binds”.
On to FLLMWITQC (also called Substitution of S157 with F) [NY-ESO-1 157-165 S157F], for which the binding result with HLA-A*0201 [1] is given as “binds”.
Same read-out and setting: under KLLMWITQC (also called Substitution of S157 with K) [NY-ESO-1 157-165 S157K] stands “binds”.
Turning to S[Nva]LQHLIGL [PRAME425-433 analog, Nva at P2], the “fold reduction of affinity against the native peptide” value in assay [3] was approximately 3 fold.
For the molecule KASEKIFYX (C-terminal amide) [SSX2 41-49-NH2], the binding result in the assay with HLA-A*0201 [4] is on record as “no binding”.
Turning to SLLQHLIGA [PRAME425-433 analog, Ala at PO], the binding result in assay [5] is “binds”.
With KLLQHLIGL (also called Lys P1 analog) [PRAME425-433 analog, Lys at P1], the binding result in assay [2] is given as “binds”.
As for KLSEKIFYVX (Nle, norleucine, at position 10 (50)) [SSX-2 41-50(A42L, Y50(Nle))], the binding result with HLA-A*0201 [1] is given as “binds”.
In the case of FVSEKIFYM [SSX2 41-49 (K41F, A42V, V49M)], a half-maximal response with HLA-A*0201 [6] (EC50) required 17.8 µM.
On to KVSEKIFYI [SSX2 41-49(A42V, V49I)], for which the EC50 (commonly the midpoint of the concentration-response curve) with HLA-A*0201 [6] is 13.9 µM.
On the same count and under the same terms, with KASEKIFYI [SSX2 41-49(V49I)] the figure was 14 µM; with KLSEKIFYI [SSX2 41-49(A42L, V49I)], 5.68 µM.
For KLSEKIFYVX (Nva, norvaline, at position 10 (50)) [SSX-2 41-50(A42L, Y50(Nva))], in the assay with HLA-A*0201 [1], the binding result is reported as “binds”.
